Legend:
[1] = biological target: Rhesus interferon alpha 2 (Rhesus) (UniProt B6CK11); test: sandwich ELISA kit PBL #41100-1; signal relative to human IFN-α2 (FIG. 3)
[2] = biological target: Cynomolgus interferon alpha 2 (SEQ ID NO: 66), purified from inclusion bodies after expression in E. coli (Cynomolgus (Macaca fascicularis)); test: as above
[3] = biological target: Cynomolgus IFN-α protein SEQ ID 56, expressed in Vero tissue culture supernatant (Cynomolgus (Macaca fascicularis)); test: ELISA kit PBL #41100 (head prints 41110) on Vero supernatant; read against human IFN-α2a standard curve; unit not given
[4] = biological target: Cynomolgus IFN-α protein SEQ ID 42, expressed in Vero tissue culture supernatant (Cynomolgus (Macaca fascicularis)); test: as above
[5] = biological target: Cynomolgus IFN-α protein SEQ ID 54, expressed in Vero tissue culture supernatant (Cynomolgus (Macaca fascicularis)); test: as above
[6] = biological target: Cynomolgus IFN-α protein SEQ ID 62, expressed in Vero tissue culture supernatant (Cynomolgus (Macaca fascicularis)); test: as above
[7] = biological target: Cynomolgus IFN-α protein SEQ ID 58, expressed in Vero tissue culture supernatant (Cynomolgus (Macaca fascicularis)); test: as above
[8] = biological target: Cynomolgus IFN-α protein SEQ ID 50, expressed in Vero tissue culture supernatant (Cynomolgus (Macaca fascicularis)); test: as above
[9] = biological target: Cynomolgus IFN-α protein SEQ ID 66, expressed in Vero tissue culture supernatant (Cynomolgus (Macaca fascicularis)); test: as above
[10] = biological target: Cynomolgus IFN-α protein SEQ ID 60, expressed in Vero tissue culture supernatant (Cynomolgus (Macaca fascicularis)); test: as above
[11] = biological target: Cynomolgus IFN-α protein SEQ ID 46, expressed in Vero tissue culture supernatant (Cynomolgus (Macaca fascicularis)); test: as above

Chain of UniProt B6CK11 (B6CK11 entry or part of it): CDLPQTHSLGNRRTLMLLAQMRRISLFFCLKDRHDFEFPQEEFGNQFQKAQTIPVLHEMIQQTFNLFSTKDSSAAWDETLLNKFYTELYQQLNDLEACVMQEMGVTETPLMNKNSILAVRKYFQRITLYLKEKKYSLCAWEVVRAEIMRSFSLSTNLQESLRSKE

Human IFN-α ELISA kit, PBL Biomedical Laboratories Product #41100-1 (kit antibodies) (antibody)
specific ELISA signal compared to human IFN-α2 [1]: 10%
specific ELISA signal compared to human IFN-α2 [2]: 10%
ELISA estimate of IFN-α protein level in tissue culture supernatant [3]: 0
ELISA estimate of IFN-α protein level in tissue culture supernatant [4]: 0
ELISA estimate of IFN-α protein level in tissue culture supernatant [5]: 11
ELISA estimate of IFN-α protein level in tissue culture supernatant [6]: 0
ELISA estimate of IFN-α protein level in tissue culture supernatant [7]: 66
ELISA estimate of IFN-α protein level in tissue culture supernatant [8]: 296
ELISA estimate of IFN-α protein level in tissue culture supernatant [9]: 184
ELISA estimate of IFN-α protein level in tissue culture supernatant [10]: 0
ELISA estimate of IFN-α protein level in tissue culture supernatant [11]: 0

From patent publication US20090092581A1
